This note sets out measurements from patent publication US20060239990A1 (published 2006).

First the molecules themselves.
B1: mouse PRMT2 (untagged; endogenous in NIH3T3 cells, MEFs, GT1-7 cells and VSMC, or expressed from mouse PRMT2 cDNA in HEK293 cells) (enzyme, UniProt Q9R144 1-448, looked up)
chain: MEAPGEGPCSESQVIPVLEEDPVDYGCEMQLLQDGAQLQLQLQPEEFVAIADYTATDETQLSFLRGEKILILRQTTADWWWGERAGCCGYIPANHLGKQLEEYDPEDTWQDEEYFDSYGTLKLHLEMLADQPRTTKYHSVILQNKESLKDKVILDVGCGTGIISLFCAHHARPKAVYAVEASDMAQHTSQLVLQNGFADTITVFQQKVEDVVLPEKVDVLVSEWMGTCLLFEFMIESILYARDTWLKGDGIIWPTTAALHLVPCSAEKDYHSKVLFWDNAYEFNLSALKSLAIKEFFSRPKSNHILKPEDCLSEPCTILQLDMRTVQVPDLETMRGELRFDIQKAGTLHGFTAWFSVYFQSLEEGQPQQVVSTGPLHPTTHWKQTLFMMDDPVPVHTGDVVHGFCCVTKKSGMEKAHVCLSELGCHVRTRSHVSTELETGSFRSGGDS
notes: also called endogenous PRMT2
B2: mouse PRMT2-Flag (FLAG-tagged full-length PRMT-2) (enzyme, UniProt Q9R144 1-448, looked up)
chain: B1 chain
notes: Printed both as PRMT2-Flag and as Flag-PRMT2, so the end that carries the tag is uncertain; Expressed in HEK293 cells; also called Flag-PRMT2; Flag PRMT2 fusion protein; not shown: Flag tag
B3: HA-tagged PRMT2 (human Protein Arginine N-Methyltransferase 2, expressed from pVR1012-PRMT2-HA) (enzyme)
chain: MATSGDCPRSESQGEEPAECSEAGLLQEGVQPEEFVAIADYAATDETQLSFLRGEKILILRQTTADWWWGERAGCCGYIPANHVGKHVDEYDPEDTWQDEEYFGSYGTLKLHLEMLADQPRTTKYHSVILQNKESLTDKVILDVGCGTGIISLFCAHYARPRAVYAVEASEMAQHTGQLVLQNGFADIITVYQQKVEDVVLPEKVDVLVSEWMGTCLLFEFMIESILYARDAWLKEDGVIWPTMAALHLVPCSADKDYRSKVLFWDNAYEFNLSALKSLAVKEFFSKPKYNHILKPEDCLSEPCTILQLDMRTVQISDLETLRGELRFDIRKAGTLHGFTAWFSVHFQSLQEGQPPQVLSTGPFHPTTHWKQTLFMMDDPVPVHTGDVVTGSVVLQRNPVWRRHMSVALSWAVTSRQDPTSQKVGEKVFPIWR
notes: Expressed by transient transfection in 293 or Saos 2 cells; also called HA-PRMT2; not shown: HA tag at the C-terminus
B4: IκB-α, endogenous in 293 cells (other, human, UniProt P25963 1-317, looked up)
chain: MFQAAERPQEWAMEGPRDGLKKERLLDDRHDSGLDSMKDEEYEQMVKELQEIRLEPQEVPRGSEPWKQQLTEDGDSFLHLAIIHEEKALTMEVIRQVKGDLAFLNFQNNLQQTPLHLAVITNQPEIAEALLGAGCDPELRDFRGNTPLHLACEQGCLASVGVLTQSCTTPHLHSILKATNYNGHTCLHLASIHGYLGIVELLVSLGADVNAQEPCNGRTALHLAVDLQNPDLVSLLLKCGADVNRVTYQGYSPYQLTWGRPSTRIQQQLGQLTLENLQMLPESEDEESYDTESEFTEFTEDELPYDDCVFGGQRLTL
notes: also called endogenous IκB-α

The target of assay [1] is T1, mouse retinoblastoma protein (RB), endogenous in MEFs (mouse, UniProt P13405 2-921).
T1 sequence (looked up): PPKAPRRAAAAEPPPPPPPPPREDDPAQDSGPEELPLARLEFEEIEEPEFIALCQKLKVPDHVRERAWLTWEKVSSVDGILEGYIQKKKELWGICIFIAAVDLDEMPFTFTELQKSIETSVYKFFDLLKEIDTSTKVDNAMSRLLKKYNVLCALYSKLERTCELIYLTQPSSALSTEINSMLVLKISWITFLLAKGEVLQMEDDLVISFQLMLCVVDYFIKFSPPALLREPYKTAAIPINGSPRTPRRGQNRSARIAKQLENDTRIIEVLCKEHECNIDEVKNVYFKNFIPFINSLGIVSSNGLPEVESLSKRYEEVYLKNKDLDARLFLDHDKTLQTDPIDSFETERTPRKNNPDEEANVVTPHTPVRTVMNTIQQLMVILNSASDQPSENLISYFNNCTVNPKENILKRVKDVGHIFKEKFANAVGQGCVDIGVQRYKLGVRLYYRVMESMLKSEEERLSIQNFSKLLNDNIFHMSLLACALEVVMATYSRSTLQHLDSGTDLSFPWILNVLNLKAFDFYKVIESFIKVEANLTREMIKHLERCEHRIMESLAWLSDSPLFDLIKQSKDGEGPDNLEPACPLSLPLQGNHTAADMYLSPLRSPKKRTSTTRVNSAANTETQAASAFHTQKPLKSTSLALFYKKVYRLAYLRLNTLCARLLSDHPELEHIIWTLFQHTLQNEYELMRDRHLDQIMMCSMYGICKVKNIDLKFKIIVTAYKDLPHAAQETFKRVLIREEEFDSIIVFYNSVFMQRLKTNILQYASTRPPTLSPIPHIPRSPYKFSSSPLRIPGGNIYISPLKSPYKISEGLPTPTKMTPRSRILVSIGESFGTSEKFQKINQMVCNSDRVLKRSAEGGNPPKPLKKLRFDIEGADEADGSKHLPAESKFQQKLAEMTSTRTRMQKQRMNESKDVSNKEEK
Description: cell-based or functional assay.

Assay [2] deals with T2, mouse STAT3 (endogenous in GT1-7 cells and VSMC, or expressed from mouse STAT3 pcDNA3 in HEK293 cells) (mouse, UniProt P42227 2-770). The assay is described as follows: immunoprecipitation with anti-STAT3 antibody from GT1-7 cell extracts with or without leptin (100 nM), immunoblot with anti-PRMT-2 antibody. As for the experimental part: A mouse hypothalamic cell line, GT1-7, was established that expressed both STAT3 and PRMT-2 (FIG. 21B), and used as a cell model for the study of leptin signaling. To further examine whether leptin stimulated endogenous interaction between PRMT-2 and STAT3, extracts from the cells that were untreated or treated with mouse leptin (100 nM) were subjected to immunoprecipitation with anti-STAT3 antibody, followed by immunoblotting with anti-PRMT-2 antibody. […] However, treatment with leptin enhanced that amount PRMT-2 that co-precipitated with STAT3 (FIG. 21B, lane 3). PRMT-2 was not detectable in immunoprecipitates obtained with preimmune rabbit IgG (FIG. 21B, lane 1).
T2 sequence (P42227 2-770 limits assumed): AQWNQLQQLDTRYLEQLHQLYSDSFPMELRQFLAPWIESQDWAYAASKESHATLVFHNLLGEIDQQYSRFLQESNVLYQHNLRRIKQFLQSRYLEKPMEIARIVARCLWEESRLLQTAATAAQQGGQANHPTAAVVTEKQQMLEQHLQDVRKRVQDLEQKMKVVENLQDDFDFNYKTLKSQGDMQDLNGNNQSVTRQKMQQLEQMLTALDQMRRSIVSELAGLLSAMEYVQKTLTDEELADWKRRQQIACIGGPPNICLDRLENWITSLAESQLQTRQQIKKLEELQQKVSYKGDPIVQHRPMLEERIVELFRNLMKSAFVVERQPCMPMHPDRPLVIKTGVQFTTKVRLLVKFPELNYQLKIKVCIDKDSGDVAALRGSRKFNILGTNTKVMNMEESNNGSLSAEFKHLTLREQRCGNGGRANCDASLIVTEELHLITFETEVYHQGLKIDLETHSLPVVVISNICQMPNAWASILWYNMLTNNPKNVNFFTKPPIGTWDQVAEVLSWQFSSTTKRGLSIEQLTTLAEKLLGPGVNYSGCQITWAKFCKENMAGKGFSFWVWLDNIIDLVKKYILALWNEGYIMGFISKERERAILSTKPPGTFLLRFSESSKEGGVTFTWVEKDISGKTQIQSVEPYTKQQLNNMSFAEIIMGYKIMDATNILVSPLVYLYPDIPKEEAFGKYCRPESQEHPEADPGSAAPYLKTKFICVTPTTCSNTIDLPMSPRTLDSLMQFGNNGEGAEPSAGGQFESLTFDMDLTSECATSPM
(In general: A western blot detects proteins with antibodies after separation by electrophoresis.)

In assay [3] the target is T2, mouse STAT3 (endogenous in GT1-7 cells …). The assay is described as follows: immunoprecipitation with anti-Flag antibody from HEK293 cells transfected with PRMT-2-Flag and STAT3, immunoblot. The protocol:
(§1) To examine whether a direct interaction occurs between PRMT-2 and STAT3 in vivo, FLAG-tagged full-length PRMT-2 cDNA and/or STAT3 cDNA were transiently transfected into HEK293 cells. After culturing the transfected cells, an immunoprecipitation was performed on cell lysates using anti-Flag antibodies followed by immunoblotting with anti-PRMT-2 antibody. […] Identical results were observed when using anti-STAT3 antibodies for immunoprecipitation (data not shown).

The target in assay [4] is T3, STAT3, endogenous in HEK293 cells (human, UniProt P40763 2-770).
T3 construct: also called endogenous STAT3
T3 sequence (P40763 2-770 limits assumed): as the sequence (P42227 2-770 limits assumed) above, with D759E counted along it
Description: immunoprecipitation with anti-Flag antibody from transfected HEK293 cells, immunoblot. As for the experimental part: as §1

The target in a further assay is T4, RelA (p65) in 293 cells (UniProt Q04206 1-551).
T4 construct: also called endogenous p65
T4 sequence (Q04206 whole entry): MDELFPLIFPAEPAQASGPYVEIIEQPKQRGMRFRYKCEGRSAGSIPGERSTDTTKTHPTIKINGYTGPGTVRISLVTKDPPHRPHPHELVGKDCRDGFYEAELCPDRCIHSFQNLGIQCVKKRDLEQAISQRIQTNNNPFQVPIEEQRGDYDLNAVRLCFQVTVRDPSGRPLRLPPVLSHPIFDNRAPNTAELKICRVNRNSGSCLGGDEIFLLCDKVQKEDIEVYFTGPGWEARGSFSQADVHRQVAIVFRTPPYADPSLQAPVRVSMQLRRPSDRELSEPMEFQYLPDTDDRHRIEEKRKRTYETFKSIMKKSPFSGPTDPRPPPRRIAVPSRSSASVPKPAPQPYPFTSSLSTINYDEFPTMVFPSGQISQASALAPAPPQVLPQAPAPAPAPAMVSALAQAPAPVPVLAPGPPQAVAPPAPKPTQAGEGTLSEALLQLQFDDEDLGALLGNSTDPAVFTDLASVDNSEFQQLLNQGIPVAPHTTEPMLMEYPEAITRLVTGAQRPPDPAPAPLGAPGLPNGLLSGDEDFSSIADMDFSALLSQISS
Description: immunoprecipitation with anti-HA antibody from transfected 293 cells, immunoblot for p65. The source says:
(§2) To map IκB-α domains that interacted with PRMT2, 293 cells were transfected with HA-tagged PRMT2 (FIG. 5C) and His-tagged derivatives of the indicated IκB-α expression vectors (FIG. 5B) as indicated. 24 hrs later cells were harvested in cell lysis buffer and cell lysates were immunoprecipitated with agarose-conjugated antibody to His (IκB-α) (FIG. 5D, lanes 1-4) and HA (PRMT2) (FIG. 5D, lanes 5-6), fractionated by SDS-PAGE and analyzed by immunoblotting with antibody to HA to detect PRMT2 ((FIG. 5D lanes 1, 2 and lanes 5, 6) and His (FIG. 5D, lanes 3, 4). To map the region of PRMT2 that interacted with endogenous IκB-α and p65, 293 cells were transfected with HA-tagged PRMT2 (FIG. 5C) derivatives as indicated. Cells were harvested 24 hrs after transfection in cell lysis buffer, immunoprecipitated with agarose-conjugated antibody to HA to detect PRMT2 and derivatives (FIG. 5E, lanes 7-15), fractionated by SDS-PAGE and analyzed by immunoblotting with antibody to p65 (FIG. 5E, lanes 7-9), IκB-α (FIG. 5E, lanes 10-12) or HA (FIG. 5E, lanes 13-15).
A polyclonal antibody to recombinant PRMT2 was used to examine the association between endogenous PRMT2 and IκB-α in vivo. […] The domain of IκB-α required for association with PRMT2 was mapped using in vivo immunoprecipitation assays where HA-tagged PRMT2 was coexpressed with truncation mutants of His-tagged IκB-α (FIG. 5B) in 293 cells. The ankyrin domain was both necessary and sufficient for this association (FIG. 5D, lanes 1 and 2). The domain of PRMT2 that interacted with endogenous IκB-α was mapped by immunoprecipitation following expression HA-tagged PRMT2 truncation mutants (FIG. 5C). […] When the ratios of PRMT2 or PRMT2-A binding to IκB-α were compared, both interacted with IκB-α with similar affinity.

Assay [5] has as its target T5, retinoblastoma protein (RB), endogenous in cultured cell lines (293, U2OS) (human, UniProt P06400 2-928).
T5 construct: also called endogenous RB
T5 sequence (looked up): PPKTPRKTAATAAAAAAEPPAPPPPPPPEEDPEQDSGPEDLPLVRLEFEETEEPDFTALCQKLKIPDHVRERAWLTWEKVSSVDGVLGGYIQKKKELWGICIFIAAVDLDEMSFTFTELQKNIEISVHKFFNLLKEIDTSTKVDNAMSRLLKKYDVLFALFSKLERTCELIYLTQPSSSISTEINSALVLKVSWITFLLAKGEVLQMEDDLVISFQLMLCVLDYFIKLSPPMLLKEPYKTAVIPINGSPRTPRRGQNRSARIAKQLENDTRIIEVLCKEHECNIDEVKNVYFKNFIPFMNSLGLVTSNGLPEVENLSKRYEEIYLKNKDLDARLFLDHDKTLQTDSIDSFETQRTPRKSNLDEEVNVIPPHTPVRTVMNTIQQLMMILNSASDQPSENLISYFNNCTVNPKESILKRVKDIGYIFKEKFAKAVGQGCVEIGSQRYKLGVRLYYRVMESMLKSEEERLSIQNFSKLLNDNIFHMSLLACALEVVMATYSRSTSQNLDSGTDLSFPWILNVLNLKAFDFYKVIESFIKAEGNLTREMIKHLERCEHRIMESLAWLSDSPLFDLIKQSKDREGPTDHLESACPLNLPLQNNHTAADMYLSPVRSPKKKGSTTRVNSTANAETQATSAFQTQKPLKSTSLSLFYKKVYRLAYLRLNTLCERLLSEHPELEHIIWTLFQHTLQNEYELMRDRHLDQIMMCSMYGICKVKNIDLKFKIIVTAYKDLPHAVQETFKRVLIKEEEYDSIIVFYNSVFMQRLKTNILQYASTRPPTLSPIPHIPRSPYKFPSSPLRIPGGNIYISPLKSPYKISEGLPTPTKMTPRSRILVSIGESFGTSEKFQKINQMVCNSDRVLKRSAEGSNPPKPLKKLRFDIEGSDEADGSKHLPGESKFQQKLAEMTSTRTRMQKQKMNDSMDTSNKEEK
The assay is described as follows: immunoprecipitation of endogenous RB from 293 cells transfected with HA-tagged PRMT2, Western blot with anti-HA antibody. As for the experimental part: FIG. 8A-C illustrate that PRMT2 interacts with retinoblastoma protein (RB). […] GST-RB and GST were bound to glutathione sepharose beads and incubated with S³⁵-labeled in vitro translated PRMT1, PRMT2, PRMT3, and PRMT4. Co-precipitated labeled PRMTs were analyzed by SDS-PAGE. […] HA-tagged PRMT2 (+) or control vectors (−) were transfected in 293 cells. Cell lysates were immunoprecipitated with rabbit RB antibodies or IgG and followed by Western blot analysis using mouse HA and RB antibodies (upper panel). A Western blot using mouse HA antibodies detects HA-tagged PRMT2 (lower panel).
The interaction of PRMT2 with RB was then analyzed in vivo. HA-tagged PRMT2 expression vectors or control vectors were transfected into 293 cells, and immunoprecipitation of endogenous RB was followed by a Western blot analysis using an anti-HA antibody. PRMT2 directly interacted with RB in contrast to control vectors (FIG. 8C).

Assay [6] concerns the target B3. Description: immunoprecipitation with anti-HA antibody from transfected 293 cells, immunoblot for endogenous IκB-α.
Description: as §2
A polyclonal antibody to recombinant PRMT2 was used to examine the association between endogenous PRMT2 and IκB-α in vivo. […] The domain of IκB-α required for association with PRMT2 was mapped using in vivo immunoprecipitation assays where HA-tagged PRMT2 was coexpressed with truncation mutants of His-tagged IκB-α (FIG. 5B) in 293 cells. […]

As to B1, in assay [1], the “E2F reporter activity (E2F4B-Luc) in MEFs” value was ~3 fold. Besides, in assay [2], the binding result is recorded as “binds”.
Take B2: the binding result in assay [3] and in assay [4] was “binds” each time.
On to B3, for which the binding result with RelA (p65) in 293 cells is on record as “no binding”; in assay [5], “binds”.
In the case of B4, the binding result in assay [6] is given as “binds”.
